This assay addresses His7-SUMO-Arc-C11^CFAS (not stated | E. coli). Description: BLI.

In turn, anhydrotrypsin (enzyme) yielded an equilibrium response signal relative to His7-SUMO-Arc-C11^CFAS/R11A of 6 fold.

For the origin of these results see paper PMC9851988.
